Test results: patent US20170210819A1

Key:
[1] = target: EGFR (human) (UniProt P00533); assay: flow cytometry on U2OS cells; histogram shifted to between 10^1 and 10^2, partly overlapping the control; 'No antibody' panel shows 6.17
[2] = target: EGFR (human) (UniProt P00533); assay: flow cytometry on PCI-30 cells; main peak between 10^2 and 10^3 with a tail toward the control; 'No antibody' panel shows 13.1
[3] = target: EGFR (human) (UniProt P00533); assay: flow cytometry on HeLa cells; histogram shifted to between 10^2 and 10^3; 'No antibody' panel shows 5.56
[4] = target: antigen CD3 (Biacore); assay: SPR (Biacore), antigen CD3

## EGFR 528 (phb 704) (antibody)
[1]
  MFI: 26.8
[2]
  MFI: 388
[3]
  MFI: 586

B1: huOKT3 IgG1-aGlyco (antibody, V domains shown)
VH: QVQLVQSGGGVVQPGRSLRLSCKASGYTFTRYTMHWVRQAPGKGLEWIGYINPSRGYTNYNQKFKDRFTISRDNSKNTAFLQMDSLRPEDTGVYFCARYYDDHYCLDYWGQGTPVTVSS
VL: DIQMTQSPSSLSASVGDRVTITCSASSSVSYMNWYQQTPGKAPKRWIYDTSKLASGVPSRFSGSGSGTDYTFTISSLQPEDIATYYCQQWSSNPFTFGQGTKLQITR
[4]
  Kd: 64.6 nM
  koff: 0.109 s⁻¹
  kon: 1.68e+06 M⁻¹ s⁻¹
